Legend:
[1] = Dependence of specific activity on pH for hydrolysis of triacetin by CE-7 esterases/perhydrolases (cell extracts of E. coli KLP18 transformants); format: biochemical; details: 200 mM triacetin, 25° C.
Protocol: A cell extract of an E. coli transformant expressing perhydrolase from Thermotoga neapolitana (KLP18/pSW196), Thermotoga maritima MSB8 (KLP18/pSW207), Bacillus pumilus PS213 (KLP1S/pSW195), Bacillus subtilis BE1010 (KLP18/pSW189), Bacillus subtilis ATCC® 31954™ (KLP18/pSW194), or Bacillus licheniformis ATCC® 14580™ (KLP18/pSW191) was prepared by passing a suspension of cell paste (20 wt % wet cell weight) in 0.05 M potassium phosphate buffer (pH 7.0) containing dithiothreitol (1 mM) twice through a French press having a working pressure of 16,000 psi (˜110 MPa). The crude extract was then centrifuged at 20,000×g to remove cellular debris, producing a clarified cell extract that was assayed for total soluble protein (Bicinchoninic Acid Kit for Protein Determination, Sigma Aldrich catalog #BCA1-KT). A portion of the clarified Thermotoga maritima MSB8 or Thermotoga neapolitana perhydrolase-containing extract was additionally heated for 20 min at 75° C., followed immediately by cooling in an ice/water bath to 5° C. The resulting mixture was centrifuged to remove precipitated protein, and the supernatant collected and assayed for total soluble protein as before.
Reactions (10 mL total volume) containing triacetin (200 mM) and cell extract supernatant (prepared as described above) were run at 25° C. and at a pH between 4.5 and 10.0, using the buffers and buffer concentrations listed in Table 5. The concentration of extract total protein (with or without heat-treatment to denature and precipitate E. coli-derived protein) was chosen to produce an ca. 50 mM decrease in triacetin concentration over 30 min (typically from 0.025 mg/mL to 0.40 mg/mL of total extract protein, dependent on the perhydrolase). A control reaction for each reaction condition was run to determine the concentration of triacetin hydrolyzed in the absence of added extract protein. Samples (100 μL) were removed at predetermined times and immediately added to 297 μL of dd H2O and 3 μL of 6N HCL. The resulting solution was mixed, then filtered using a 30,000 NMWL filter (Millipore) using a microcentrifuge for 2 min at 12,000 rpm. An aliquot of the filtrate (100 μL) was added to 150 μL of 0.417 mM N,N-diethyl meta-toluamide (external standard) in acetonitrile, and the resulting solution analyzed for triacetin by HPLC using a Supelco Discovery C8 column (25 cm×4.0 mm, 5 um; Supelco #59353-U40) and an isocratic mobile phase of 40% acetonitrile/60% distilled water at a flow rate of 1 mL/min. Triacetin was measured by UV detection at 225 nm.

[2] = Peracetic acid production by perhydrolases, control by initial reaction pH in sodium citrate buffer; format: biochemical; details: triacetin 100 mM, 0.050 mg/mL extract total protein, 25° C.
Protocol: A cell extract of a transformant expressing perhydrolase from Bacillus pumilus PS213 (KLP18/pSW195), Thermotoga maritima MSB8 (KLP18/pSW207), Thermotoga neapolitana (KLP18/pSW196), or Bacillus subtilis ATCC® 31954™ (KLP18/pSW194) was prepared by passing a suspension of cell paste (20 wt % wet cell weight) in 0.05 M potassium phosphate buffer (pH 7.0) containing dithiothreitol (1 mM) twice through a French press having a working pressure of 16,000 psi (˜110 MPa). The crude extract was then centrifuged at 20,000×g to remove cellular debris, producing a clarified cell extract that was assayed for total soluble protein (Bicinchoninic Acid Kit for Protein Determination, Sigma Aldrich catalog #BCA1-KT). The supernatant was frozen in dry ice and stored at −80° C.
Reactions (10 mL total volume) containing triacetin, hydrogen peroxide and centrifuged cell extract supernatant (prepared as described above) in 50 mM sodium citrate buffer (initial pH 7.2 or 6.5) were run at 25° C. A control reaction for each reaction condition was run to determine the concentration of peracetic acid produced by chemical perhydrolysis of triacetin by hydrogen peroxide in the absence of added extract protein (data not shown). Determination of the concentration of peracetic acid in the reaction mixtures was performed according to the method described by Karst et al., supra.

[3] = pH 7.0, potassium phosphate 0.15 M
[4] = pH 7.5, potassium phosphate 0.15 M
[5] = pH 8.0, potassium phosphate 0.20 M
[6] = pH 8.5, Tris(hydroxymethyl)aminomethane 0.20 M
[7] = pH 9.0, Tris(hydroxymethyl)aminomethane 0.20 M
[8] = initial pH 6.5, sodium citrate 50 mM, H2O2 100 mM
[9] = initial pH 6.5, sodium citrate 50 mM, H2O2 250 mM
[10] = initial pH 7.2, sodium citrate 50 mM, H2O2 100 mM
[11] = initial pH 7.2, sodium citrate 50 mM, H2O2 250 mM

B1: Thermotoga maritima MSB8 perhydrolase: acetyl xylan esterase with perhydrolase activity from Thermotoga maritima MSB8 (SEQ ID NO: 16), cell extract of E. coli KLP18/pSW207 (protein, listed as Thermotoga maritima)
chain: MAFFDLPLEELKKYRPERYEEKDFDEFWEETLAESEKFPLDPVFERMESHLKTVEAYDVTFSGYRGQRIKGWLLVPKLEEEKLPCVVQYIGYNGGRGFPHDWLFWPSMGYICFVMDTRGQGSGWLKGDTPDYPEGPVDPQYPGFMTRGILDPRTYYYRRVFTDAVRAVEAAASFPQVDQERIVIAGGSQGGGIALAVSALSKKAKALLCDVPFLCHFRRAVQLVDTHPYAEITNFLKTHRDKEEIVFRTLSYFDGVNFAARAKIPALFSVGLMDNICPPSTVFAAYNYYAGPKEIRIYPYNNHEGGGSFQAVEQVKFLKKLFEKG
specific activity (mmol triacetin/min/mg total extract protein) ([1]; pH 5.5, sodium acetate 0.15 M): 1.4 mmol triacetin/min/mg total extract protein
specific activity (mmol triacetin/min/mg total extract protein) ([1]; pH 6.0, sodium citrate 0.15 M): 4.3 mmol triacetin/min/mg total extract protein
specific activity (mmol triacetin/min/mg total extract protein) ([1]; pH 6.5, sodium citrate 0.15 M): 10.3 mmol triacetin/min/mg total extract protein
specific activity (mmol triacetin/min/mg total extract protein) [1, 3]: 16.0 mmol triacetin/min/mg total extract protein
specific activity (mmol triacetin/min/mg total extract protein) [1, 4]: 19.8 mmol triacetin/min/mg total extract protein
specific activity (mmol triacetin/min/mg total extract protein) [1, 5]: 28.7 mmol triacetin/min/mg total extract protein
specific activity (mmol triacetin/min/mg total extract protein) [1, 6]: 38.8 mmol triacetin/min/mg total extract protein
specific activity (mmol triacetin/min/mg total extract protein) [1, 7]: 57.1 mmol triacetin/min/mg total extract protein
specific activity (mmol triacetin/min/mg total extract protein) ([1]; pH 9.5, glycine 0.20 M): 21.6 mmol triacetin/min/mg total extract protein
PAA, 1 min (ppm) [2, 8]: 53 ppm
PAA, 5 min (ppm) [2, 8]: 279 ppm
PAA, 30 min (ppm) [2, 8]: 1540 ppm
PAA, 1 min (ppm) [2, 9]: 95 ppm
PAA, 5 min (ppm) [2, 9]: 742 ppm
PAA, 30 min (ppm) [2, 9]: 2446 ppm
PAA, 1 min (ppm) [2, 10]: 210 ppm
PAA, 5 min (ppm) [2, 10]: 610 ppm
PAA, 30 min (ppm) [2, 10]: 1995 ppm
PAA, 1 min (ppm) [2, 11]: 635 ppm
PAA, 5 min (ppm) [2, 11]: 1725 ppm
PAA, 30 min (ppm) [2, 11]: 3565 ppm

B2: Thermotoga neapolitana perhydrolase: acetyl xylan esterase with perhydrolase activity from Thermotoga neapolitana (SEQ ID NO: 14), cell extract of E. coli KLP18/pSW196 (protein, listed as Thermotoga neapolitana)
chain: MAFFDMPLEELKKYRPERYEEKDFDEFWRETLKESEGFPLDPVFEKVDFHLKTVETYDVTFSGYRGQRIKGWLLVPKLAEEKLPCVVQYIGYNGGRGFPHDWLFWPSMGYICFVMDTRGQGSGWMKGDTPDYPEGPVDPQYPGFMTRGILDPGTYYYRRVFVDAVRAVEAAISFPRVDSRKVVVAGGSQGGGIALAVSALSNRVKALLCDVPFLCHFRRAVQLVDTHPYVEITNFLKTHRDKEEIVFRTLSYFDGVNFAARAKVPALFSVGLMDTICPPSTVFAAYNHYAGPKEIRIYPYNNHEGGGSFQAIEQVKFLKRLFEEG
specific activity (mmol triacetin/min/mg total extract protein) ([1]; pH 5.5, sodium acetate 0.15 M): 0 mmol triacetin/min/mg total extract protein
specific activity (mmol triacetin/min/mg total extract protein) ([1]; pH 6.0, sodium citrate 0.15 M): 0.4 mmol triacetin/min/mg total extract protein
specific activity (mmol triacetin/min/mg total extract protein) ([1]; pH 6.5, sodium citrate 0.15 M): 1.7 mmol triacetin/min/mg total extract protein
specific activity (mmol triacetin/min/mg total extract protein) [1, 3]: 3.3 mmol triacetin/min/mg total extract protein
specific activity (mmol triacetin/min/mg total extract protein) [1, 4]: 5.3 mmol triacetin/min/mg total extract protein
specific activity (mmol triacetin/min/mg total extract protein) [1, 5]: 5.8 mmol triacetin/min/mg total extract protein
specific activity (mmol triacetin/min/mg total extract protein) [1, 6]: 11.3 mmol triacetin/min/mg total extract protein
specific activity (mmol triacetin/min/mg total extract protein) [1, 7]: 12.5 mmol triacetin/min/mg total extract protein
specific activity (mmol triacetin/min/mg total extract protein) ([1]; pH 9.5, glycine 0.20 M): 12.0 mmol triacetin/min/mg total extract protein
specific activity (mmol triacetin/min/mg total extract protein) ([1]; pH 10.0, glycine 0.20 M): 0 mmol triacetin/min/mg total extract protein
PAA, 1 min (ppm) [2, 8]: 221 ppm
PAA, 5 min (ppm) [2, 8]: 607 ppm
PAA, 30 min (ppm) [2, 8]: 1925 ppm
PAA, 1 min (ppm) [2, 9]: 434 ppm
PAA, 5 min (ppm) [2, 9]: 1260 ppm
PAA, 30 min (ppm) [2, 9]: 2016 ppm
PAA, 1 min (ppm) [2, 10]: 798 ppm
PAA, 5 min (ppm) [2, 10]: 1748 ppm
PAA, 30 min (ppm) [2, 10]: 2500 ppm
PAA, 1 min (ppm) [2, 11]: 1790 ppm
PAA, 5 min (ppm) [2, 11]: 2860 ppm
PAA, 30 min (ppm) [2, 11]: 3820 ppm

— patent publication US8389575B2, “Control of enzymatic peracid generation” (E.I. du Pont de Nemours and Company, priority 2008, dated 2013)
